The source of these data is article PMC4881948, “X-Ray Solution Scattering Study of Four Escherichia coli Enzymes Involved in Stationary-Phase Metabolism” (PLoS ONE, 2016).

Data set [1] deals with the molecule itself. In words: SAXS; solution scattering of the single protein, standard 50 mM Tris pH 7.5 buffer, 10°C, four concentrations 1.4-10.8 mg/ml; GadA stored in 100 mM Na-acetate, 10 mM NaCl, 1 mM DTT pH 4.6 and raised to pH 7.5 immediately before; oligomers from molecular mass, rigid-body modelling and OLIGOMER fits.
Data set [2] deals with the molecule itself. The data set is described as follows: SEC + AUC; GadA at pH 7.5: Tris-HCl, 10 mM NaCl, 1 mM DTT pH 7.5; SEC on Superdex 200 10/300 GL, load 5 mg/ml; sedimentation velocity at 20°C, 0.4 mg/ml.
Data set [3] concerns the molecule itself. The data set is described as follows: SEC + AUC; GadA at pH 4.6: 100 mM Na-acetate, 10 mM NaCl, 1 mM DTT pH 4.6; SEC on Superdex 200 10/300 GL, load 5 mg/ml; sedimentation velocity at 20°C, 0.4 mg/ml.

B1: Class I fructose-1,6-bisphosphate aldolase (FbaB) from E. coli (enzyme, UniProt P0A991 1-350, looked up)
chain: MTDIAQLLGKDADNLLQHRCMTIPSDQLYLPGHDYVDRVMIDNNRPPAVLRNMQTLYNTGRLAGTGYLSILPVDQGVEHSAGASFAANPLYFDPKNIVELAIEAGCNCVASTYGVLASVSRRYAHRIPFLVKLNHNETLSYPNTYDQTLYASVEQAFNMGAVAVGATIYFGSEESRRQIEEISAAFERAHELGMVTVLWAYLRNSAFKKDGVDYHVSADLTGQANHLAATIGADIVKQKMAENNGGYKAINYGYTDDRVYSKLTSENPIDLVRYQLANCYMGRAGLINSGGAAGGETDLSDAVRTAVINKRAGGMGLILGRKAFKKSMADGVKLINAVQDVYLDSKITIA
notes: Class I fructose bisphosphate aldolase FbaB, E. coli, UniProt A0A037Y4V8; 350 amino acids, calculated monomer 38.1 kDa; Decamer in solution by SAXS; also called Class I Fba; copies: 10
What is called stoichiometry N is the number of molecules, sites or subunits per partner or assembly. As for B1, the “stoichiometry N” value in data set [1] stood at 10.

B2: inorganic pyrophosphatase (PPase) from E. coli (enzyme)
chain: SLLNVPAGKDLPEDIYVVIEIPANADPIKYEIDKESGALFVDRFMSTAMFYPCNYGYINHTLSLDGDPVDVLVPTPYPLQPGSVIRCRPVGVLKMTDEAGEDAKLVAVPHSKLSKEYDHIKDVNDLPELLKAQIAHFFEHYKDLEKGKWVKVEGWENAEAAKAEIVASFERAKNK
notes: inorganic pyrophosphatase, E. coli; Hexamer in solution by SAXS
With B2, in data set [1], the “stoichiometry N” value was 6.

B3: glutamate decarboxylase (GadA) from E. coli (enzyme)
chain: MDQKLLTDFRSELLDSRFGAKAISTIAESKRFPLHEMRDDVAFQIINDELYLDGNARQNLATFCQTWDDENVHKLMDLSINKNWIDKEEYPQSAAIDLRCVNMVADLWHAPAPKNGQAVGTNTIGSSEACMLGGMAMKWRWRKRMEAAGKPTDKPNLVCGPVQICWHKFARYWDVELREIPMRPGQLFMDPKRMIEACDENTIGVVPTFGVTYTGNYEFPQPLHDALDKFQADTGIDIDMHIDAASGGFLAPFVAPDIVWDFRLPRVKSISASGHKFGLAPLGCGWVIWRDEEALPQELVFNVDYLGGQIGTFAINFSRPAGQVIAQYYEFLRLGREGYTKVQNASYQVAAYLADEIAKLGPYEFICTGRPDEGIPAVCFKLKDGEDPGYTLYDLSERLRLRGWQVPAFTLGGEATDIVVMRIMCRRGFEMDFAELLLEDYKASLKYLSDHPKLQGIAQQNSFKHT
notes: glutamate decarboxylase GadA, E. coli; Hexamer at pH 4.6, mixture of hexamers and dimers at pH 7.5; also called GadA low-salt
With B3, the “stoichiometry N” value in data set [2] stood at 2; in data set [3] it was 6.
